Two molecules from EP1788086A1 (HUMAN GENOME SCIENCES, INC., dated 2007) can be followed below.

The target in assay [1] is T1, DR5 (expression construct in 293 cells, precipitated with Flag M2 antibody gel) (human, UniProt O14763 52-440).
T1 construct: also called Death Domain Containing Receptor 5; HLYBX88; not shown: Flag tag implied by immunoprecipitation with Flag M2 gel
The assay can be described thus: co-immunoprecipitation from co-transfected 293 cell lysates with Flag M2 antibody gel; immunoblot with HRP-conjugated antibody to myc. On the technique in general: Immunoblotting shows a protein as a band on a membrane.

In assay [2] the target is T1, DR5 (expression construct in 293 cells, …). The assay can be described thus: co-immunoprecipitation from co-transfected 293 cell lysates with Flag M2 antibody gel; immunoblot with polyclonal antibody to FADD.

B1: myc-tagged TRADD (other, UniProt Q15628 1-312, looked up)
chain: MAAGQNGHEEWVGSAYLFVESSLDKVVLSDAYAHPQQKVAVYRALQAALAESGGSPDVLQMLKIHRSDPQLIVQLRFCGRQPCGRFLRAYREGALRAALQRSLAAALAQHSVPLQLELRAGAERLDALLADEERCLSCILAQQPDRLRDEELAELEDALRNLKCGSGARGGDGEVASAPLQPPVPSLSEVKPPPPPPPAQTFLFQGQPVVNRPLSLKDQQTFARSVGLKWRKVGRSLQRGCRALRDPALDSLAYEYEREGLYEQAFQLLRRFVQAEGRRATLQRLVEALEENELTSLAEDLLGLTDPNGGLA
notes: Detected with HRP-conjugated antibody to myc; also called myc-TRADD; not shown: myc tag
On to B1, for which the binding result in assay [1] is listed as “no binding”.

B2: FADD (other, UniProt Q13158 1-208, looked up)
chain: MDPFLVLLHSVSSSLSSSELTELKFLCLGRVGKRKLERVQSGLDLFSMLLEQNDLEPGHTELLRELLASLRRHDLLRRVDDFEAGAAAGAAPGEEDLCAAFNVICDNVGKDWRRLARQLKVSDTKIDSIEDRYPRNLTERVRESLRIWKNTEKENATVAHLVGALRSCQMNLVADLVQEVQQARDLQNRSGAMSPMSWNSDASTSEAS
notes: Detected with a polyclonal antibody to FADD; also called FADD/MORT1
Take B2: the binding result in assay [2] is “no binding”.
